Laboratory results reported in US20240400614A1, “CLEAVABLE PEPTIDES AND METHODS OF USE THEREOF” (Bright Peak Therapeutics AG, priority 2023, published 2024).
Square brackets hold non-standard residues; d marks the D form. Ends that are not written are not given here. Tyr(3-NO2) = N[C@@H](Cc1ccc(O)c([N+](=O)[O-])c1)C(=O)O; 2Abz = Nc1ccccc1C(=O)O

Key:
Format in all cases: biochemical
[1] = molecular target: T1, MMP-7 (Homo sapiens, UniProt P09237); experiment: FRET peptide cleavage efficiency with MMP-7 (standard pH 7.5; also pH 6.5)
T1 construct: purchased SIGMA CC1059
T1 sequence (P09237 95-267): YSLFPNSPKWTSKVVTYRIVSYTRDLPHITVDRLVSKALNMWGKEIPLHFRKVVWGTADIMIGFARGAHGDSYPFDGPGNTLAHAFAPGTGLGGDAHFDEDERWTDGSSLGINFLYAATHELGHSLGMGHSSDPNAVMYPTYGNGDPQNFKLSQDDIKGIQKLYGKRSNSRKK

[2] = molecular target: uPA (Homo sapiens, UniProt P00749); experiment: FRET peptide cleavage efficiency with uPA
[3] = molecular target: T2, MMP-9 (Homo sapiens, UniProt P14780); experiment: FRET peptide cleavage efficiency with MMP-9 (standard pH 7.5; also pH 6.5)
T2 construct: purchased SIGMA PF024
T2 sequence (P14780 94-707): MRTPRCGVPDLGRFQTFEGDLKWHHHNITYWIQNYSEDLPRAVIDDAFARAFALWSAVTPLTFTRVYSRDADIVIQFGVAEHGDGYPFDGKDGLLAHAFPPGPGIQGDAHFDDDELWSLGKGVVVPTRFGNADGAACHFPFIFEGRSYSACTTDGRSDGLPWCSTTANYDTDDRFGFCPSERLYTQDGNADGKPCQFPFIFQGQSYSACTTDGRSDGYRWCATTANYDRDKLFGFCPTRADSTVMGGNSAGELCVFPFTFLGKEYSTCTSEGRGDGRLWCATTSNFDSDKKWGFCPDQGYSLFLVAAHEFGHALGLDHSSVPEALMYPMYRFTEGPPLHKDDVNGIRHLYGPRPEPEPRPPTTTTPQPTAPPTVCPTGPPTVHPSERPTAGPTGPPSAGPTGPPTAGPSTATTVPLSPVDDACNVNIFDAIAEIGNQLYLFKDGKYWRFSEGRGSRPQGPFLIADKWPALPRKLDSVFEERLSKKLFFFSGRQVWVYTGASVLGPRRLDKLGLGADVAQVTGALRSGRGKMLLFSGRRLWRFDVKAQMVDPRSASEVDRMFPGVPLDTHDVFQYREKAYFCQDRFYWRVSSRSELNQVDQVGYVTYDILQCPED

[4] = molecular target: T3, MMP-2 (Homo sapiens, UniProt P08253); experiment: FRET peptide cleavage efficiency with MMP-2
T3 construct: purchased SIGMA PF023
T3 sequence (P08253 110-660): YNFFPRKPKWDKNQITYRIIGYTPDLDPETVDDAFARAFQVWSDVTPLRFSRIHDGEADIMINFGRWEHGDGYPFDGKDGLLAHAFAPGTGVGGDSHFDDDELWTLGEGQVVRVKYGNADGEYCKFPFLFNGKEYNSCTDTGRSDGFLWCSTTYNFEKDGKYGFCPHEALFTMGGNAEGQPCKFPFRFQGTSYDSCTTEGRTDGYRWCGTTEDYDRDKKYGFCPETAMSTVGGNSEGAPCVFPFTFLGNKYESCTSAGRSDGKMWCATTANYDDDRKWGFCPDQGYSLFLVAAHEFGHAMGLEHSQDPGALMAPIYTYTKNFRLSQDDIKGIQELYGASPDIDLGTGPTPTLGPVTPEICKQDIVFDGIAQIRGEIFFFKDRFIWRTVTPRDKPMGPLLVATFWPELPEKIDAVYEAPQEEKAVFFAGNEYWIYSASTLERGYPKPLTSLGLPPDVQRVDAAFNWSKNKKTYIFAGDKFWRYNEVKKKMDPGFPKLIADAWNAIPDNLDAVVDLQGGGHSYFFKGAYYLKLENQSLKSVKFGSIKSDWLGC

[5] = molecular target: T4, matriptase (Homo sapiens, UniProt Q9Y5Y6); experiment: FRET peptide cleavage efficiency with matriptase
T4 construct: purchased R&D Systems 3946-SEB
T4 sequence (Q9Y5Y6 615-855 limits assumed): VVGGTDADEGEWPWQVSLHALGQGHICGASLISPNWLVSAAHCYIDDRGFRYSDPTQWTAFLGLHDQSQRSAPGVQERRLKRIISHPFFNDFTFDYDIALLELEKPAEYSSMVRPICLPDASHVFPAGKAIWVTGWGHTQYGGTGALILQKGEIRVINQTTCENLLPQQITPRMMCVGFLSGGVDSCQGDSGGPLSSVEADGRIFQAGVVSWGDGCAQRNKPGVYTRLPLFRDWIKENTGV

[6] = t = 15 min, 200 uM linker, 1 ug/ml protease, 37° C., buffer A pH 8.5
[7] = 200 uM linker, 1 ug/ml protease, 37° C., buffer A pH 8.5
[8] = t = 15 min, 200 uM linker, 1 ug/ml protease, 37° C., buffer C pH 7.5
[9] = t = 60 min, 200 uM linker, 1 ug/ml protease, 37° C., buffer C pH 7.5
[10] = t = 120 min, 200 uM linker, 1 ug/ml protease, 37° C., buffer C pH 7.5
[11] = 200 uM linker, 1 ug/ml protease, 37° C., buffer B pH 9.0
[12] = t = 15 min, standard conditions (Table 8)
[13] = t = 60 min, standard conditions (Table 8)
[14] = t = 120 min, standard conditions (Table 8)

## RGRRSGRAANLVRPLGYFGKL ([2Abz]RGRRSGRAANLVRPLGYFGKL[Tyr(3-NO2)]-NH2) [LNK059]
[1]; t = 15 min (Table 9)
  % cleavage MMP-7 t = 15 min: 0%
[1]; t = 60 min (Table 9)
  % cleavage MMP-7 t = 60 min: 0%
[1]; t = 120 min (Table 9)
  % cleavage MMP-7 t = 120 min: 0%
[2]; [6]
  % cleavage uPA t = 15 min: 67%
[2]; [7]
  % cleavage uPA t = 60 min: 100%
  % cleavage uPA t = 120 min: 100%
[3]; t = 15 min (Table 9)
  % cleavage MMP-9 t = 15 min: 39%
[3]; t = 60 min (Table 9)
  % cleavage MMP-9 t = 60 min: 100%
[3]; t = 120 min (Table 9)
  % cleavage MMP-9 t = 120 min: 100%
[4]; t = 15 min (Table 9)
  % cleavage MMP-2 t = 15 min: 77%
[4]; [8]
  % cleavage MMP-2 t = 15 min: 77%
[4]; t = 60 min (Table 9)
  % cleavage MMP-2 t = 60 min: 100%
[4]; [9]
  % cleavage MMP-2 t = 60 min: 100%
[4]; t = 120 min (Table 9)
  % cleavage MMP-2 t = 120 min: 100%
[4]; [10]
  % cleavage MMP-2 t = 120 min: 100%
[5]; [11]
  % cleavage Matriptase t = 15 min: 76%
  % cleavage Matriptase t = 60 min: 100%
  % cleavage Matriptase t = 120 min: 100%

## SGRVAPYMLQG ([2Abz]SGRVAPYMLQG[Tyr(3-NO2)]-NH2) [LNK042]
[1]; t = 15 min (Table 9)
  % cleavage MMP-7 t = 15 min: 59%
[1]; [12]
  % cleavage MMP-7 t = 15 min: 59%
[1]; t = 60 min (Table 9)
  % cleavage MMP-7 t = 60 min: 100%
[1]; [13]
  % cleavage MMP-7 t = 60 min: 100%
[1]; t = 120 min (Table 9)
  % cleavage MMP-7 t = 120 min: 100%
[1]; [14]
  % cleavage MMP-7 t = 120 min: 100%
[2]; [12]
  % vcleavage uPA t = 15 min: 2%
[2]; standard conditions (Table 8)
  % cleavage uPA t = 60 min: 6%
  % cleavage uPA t = 120 min: 13%
[3]; t = 15 min (Table 9)
  % cleavage MMP-9 t = 15 min: 55%
[3]; [12]
  % cleavage MMP-9 t = 15 min: 55%
[3]; t = 60 min (Table 9)
  % cleavage MMP-9 t = 60 min: 100%
[3]; [13]
  % cleavage MMP-9 t = 60 min: 100%
[3]; t = 120 min (Table 9)
  % cleavage MMP-9 t = 120 min: 100%
[3]; [14]
  % cleavage MMP-9 t = 120 min: 100%
[4]; t = 15 min (Table 9)
  % cleavage MMP-2 t = 15 min: 49%
[4]; t = 60 min (Table 9)
  % cleavage MMP-2 t = 60 min: 91%
[4]; [13]
  % cleavage MMP-2 t = 60 min: 91%
[4]; t = 120 min (Table 9)
  % cleavage MMP-2 t = 120 min: 100%
[4]; [14]
  % cleavage MMP-2 t = 120 min: 100%
[5]; standard conditions (Table 8)
  % cleavage Matriptase t = 15 min: 28%
  % cleavage Matriptase t = 60 min: 80%
  % cleavage Matriptase t = 120 min: 100%

## SGRVLPAGLVG ([2Abz]SGRVLPAGLVG[Tyr(3-NO2)]-NH2) [LNK007]
[2]; [6]
  % cleavage uPA t = 15 min: 0%
[2]; [7]
  % cleavage uPA t = 60 min: 0%
  % cleavage uPA t = 120 min: 1%
[4]; [8]
  % cleavage MMP-2 t = 15 min: 99%
[4]; [9]
  % cleavage MMP-2 t = 60 min: 95%
[4]; [10]
  % cleavage MMP-2 t = 120 min: 94%
[5]; [11]
  % cleavage Matriptase t = 15 min: 23%
  % cleavage Matriptase t = 60 min: 79%
  % cleavage Matriptase t = 120 min: 97%

## SGRVLGPLNLSG ([2Abz]SGRVLGPLNLSG[Tyr(3-NO2)]-NH2) [LNK008]
[2]; [6]
  % cleavage uPA t = 15 min: 1%
[2]; [7]
  % cleavage uPA t = 60 min: 1%
  % cleavage uPA t = 120 min: 2%
[4]; [8]
  % cleavage MMP-2 t = 15 min: 71%
[4]; [9]
  % cleavage MMP-2 t = 60 min: 99%
[4]; [10]
  % cleavage MMP-2 t = 120 min: 99%
[5]; [11]
  % cleavage Matriptase t = 15 min: 20%
  % cleavage Matriptase t = 60 min: 72%
  % cleavage Matriptase t = 120 min: 92%

## SSRGPASNRRLPLGLAG ([2Abz]SSRGPASNRRLPLGLAG[Tyr(3-NO2)]-NH2) [LNK001]
[2]; [6]
  % cleavage uPA t = 15 min: 4%
[2]; [7]
  % cleavage uPA t = 60 min: 17%
  % cleavage uPA t = 120 min: 30%
[4]; [8]
  % cleavage MMP-2 t = 15 min: 54%
[4]; [9]
  % cleavage MMP-2 t = 60 min: 98%
[4]; [10]
  % cleavage MMP-2 t = 120 min: 99%
[5]; [11]
  % cleavage Matriptase t = 15 min: 77%
  % cleavage Matriptase t = 60 min: 99%
  % cleavage Matriptase t = 120 min: 99%

## KWGKSAPLGLAG ([2Abz]KWGKSAPLGLAG[Tyr(3-NO2)]-NH2) [LNK026]
[2]; [6]
  % cleavage uPA t = 15 min: 0%
[2]; [7]
  % cleavage uPA t = 60 min: 1%
  % cleavage uPA t = 120 min: 3%
[4]; [8]
  % cleavage MMP-2 t = 15 min: 69%
[4]; [9]
  % cleavage MMP-2 t = 60 min: 98%
[4]; [10]
  % cleavage MMP-2 t = 120 min: 98%
[5]; [11]
  % cleavage Matriptase t = 15 min: 97%
  % cleavage Matriptase t = 60 min: 86%
  % cleavage Matriptase t = 120 min: 86%

## SGRVLTLRKAPWGLLE ([2Abz]SGRVLTLRKAPWGLLE[Tyr(3-NO2)]-NH2) [LNK004]
[2]; [6]
  % cleavage uPA t = 15 min: 6%
[2]; [7]
  % cleavage uPA t = 60 min: 16%
  % cleavage uPA t = 120 min: 27%
[4]; [8]
  % cleavage MMP-2 t = 15 min: 16%
[4]; [9]
  % cleavage MMP-2 t = 60 min: 50%
[4]; [10]
  % cleavage MMP-2 t = 120 min: 74%
[5]; [11]
  % cleavage Matriptase t = 15 min: 98%
  % cleavage Matriptase t = 60 min: 98%
  % cleavage Matriptase t = 120 min: 95%
